Experimental data reported in publication PMC4474691, “Leukemia-Associated Mutations in Nucleophosmin Alter Recognition by CRM1: Molecular Basis of Aberrant Transport” (PLoS ONE, 2015).

B1: NPMmutE: AML-associated NPM mutant E; in b62 the value is for its NES as TFP construct (protein)
chain: MEDSMDMDMSPLRPQNYLFGCELKADKDYHFKVDNDENEHQLSLRTVSLGAGAKDELHIVEAEAMNYEGSPIKVTLATLKMSVQPTVSLGGFEITPPVVLRLKCGSGPVHISGQHLVAVEEDAESEDEEEEDVKLLSISGKRSAPGGGSKVPQKKVKLAADEDDDDDDEEDDDEDDDDDDFDDEEAEEKAPVKKSIRDTPAKNAQKSNQNGKDSKPSSTPRSKGQESFKKQEKTPKTPKGPSSVEDIKAKMQASIEKGGSLPKVEAKFINYVKNCFRMTDQEAIQDLWQSLAQVSLRK
modifications: full-length mutant E, pentamer (SEC); for the b62 value only the NES DLWQSLAQVSLRK as TFP fusion was assayed
B2: NPMmutA: AML-associated NPM mutant A; in b62 the value is for its NES as TFP construct (protein)
chain: MEDSMDMDMSPLRPQNYLFGCELKADKDYHFKVDNDENEHQLSLRTVSLGAGAKDELHIVEAEAMNYEGSPIKVTLATLKMSVQPTVSLGGFEITPPVVLRLKCGSGPVHISGQHLVAVEEDAESEDEEEEDVKLLSISGKRSAPGGGSKVPQKKVKLAADEDDDDDDEEDDDEDDDDDDFDDEEAEEKAPVKKSIRDTPAKNAQKSNQNGKDSKPSSTPRSKGQESFKKQEKTPKTPKGPSSVEDIKAKMQASIEKGGSLPKVEAKFINYVKNCFRMTDQEAIQDLCLAVEEVSLRK
modifications: full-length mutant A, pentamer (SEC); for the b62 value only the NES DLCLAVEEVSLRK as TFP fusion was assayed

Target: T1, CRM1^HA (Mus musculus, UniProt Q6P5F9, L431A/V430A/V432A)
T1 construct: His-ZZ (cleaved yes); made in house; host or cells: Escherichia coli BL21-CodonPlus (DE3)
Experiment: Isothermal titration calorimetry, CRM1^HA / NES
Assay type: binding
Settings: ITC, TFP-NES titrated onto CRM1^HA, 20°C, 20 mM HEPES pH 7.4; rounded; read-out: KD
Protocol: Isothermal titration calorimetry (ITC)
ITC measurements were carried out using a VIP-ITC MicroCalorimeter (MicroCal, Inc., Northampton, MA). TFP and YFP constructs, as well as CRM1^HA, were dialyzed in a buffer containing 20 mM HEPES, pH 7.4, 50 mM NaCl, 1 mM TCEP, 1 mM MgCl2, and degassed prior to the experiment. Untagged peptides (AS: QDLCLAVEEVSLRK, AL: EAIQDLCLAVEEVSLRK, ES: QDLWQSLAQVSLRK and EL: EAIQDLWQSLAQVSLRK), N-acetylated and 95% pure, were purchased from Proteogenix (Schiltigheim, France) and resuspended in the ITC buffer. Measurements were performed at 20°C. TFP-NES, YFP-NES or NES peptides at 35–180 μM were titrated onto CRM1^HA at 2–14 μM. Injections of 6 μL were performed at 320 seconds interval (the first injection always was of 1 μL and is not considered in data analysis). […]
The reaction heat of each injection is related to the calorimetric enthalpy of binding, ΔH^0. The binding isotherms, ΔH^0 vs. molar ratio, were analyzed with an independent binding sites model using MicroCal Origin software. […] The Gibbs free energy of binding ΔG^0 and the entropy ΔS^0 are determined from the basic thermodynamic expressions: ΔG^0 = -RTlnKA = ΔH^0−TΔS^0, where R and T are the gas constant and the absolute temperature, respectively. […]

T1 sequence (Q6P5F9 1-1062 V430A/L431A/V432A limits assumed): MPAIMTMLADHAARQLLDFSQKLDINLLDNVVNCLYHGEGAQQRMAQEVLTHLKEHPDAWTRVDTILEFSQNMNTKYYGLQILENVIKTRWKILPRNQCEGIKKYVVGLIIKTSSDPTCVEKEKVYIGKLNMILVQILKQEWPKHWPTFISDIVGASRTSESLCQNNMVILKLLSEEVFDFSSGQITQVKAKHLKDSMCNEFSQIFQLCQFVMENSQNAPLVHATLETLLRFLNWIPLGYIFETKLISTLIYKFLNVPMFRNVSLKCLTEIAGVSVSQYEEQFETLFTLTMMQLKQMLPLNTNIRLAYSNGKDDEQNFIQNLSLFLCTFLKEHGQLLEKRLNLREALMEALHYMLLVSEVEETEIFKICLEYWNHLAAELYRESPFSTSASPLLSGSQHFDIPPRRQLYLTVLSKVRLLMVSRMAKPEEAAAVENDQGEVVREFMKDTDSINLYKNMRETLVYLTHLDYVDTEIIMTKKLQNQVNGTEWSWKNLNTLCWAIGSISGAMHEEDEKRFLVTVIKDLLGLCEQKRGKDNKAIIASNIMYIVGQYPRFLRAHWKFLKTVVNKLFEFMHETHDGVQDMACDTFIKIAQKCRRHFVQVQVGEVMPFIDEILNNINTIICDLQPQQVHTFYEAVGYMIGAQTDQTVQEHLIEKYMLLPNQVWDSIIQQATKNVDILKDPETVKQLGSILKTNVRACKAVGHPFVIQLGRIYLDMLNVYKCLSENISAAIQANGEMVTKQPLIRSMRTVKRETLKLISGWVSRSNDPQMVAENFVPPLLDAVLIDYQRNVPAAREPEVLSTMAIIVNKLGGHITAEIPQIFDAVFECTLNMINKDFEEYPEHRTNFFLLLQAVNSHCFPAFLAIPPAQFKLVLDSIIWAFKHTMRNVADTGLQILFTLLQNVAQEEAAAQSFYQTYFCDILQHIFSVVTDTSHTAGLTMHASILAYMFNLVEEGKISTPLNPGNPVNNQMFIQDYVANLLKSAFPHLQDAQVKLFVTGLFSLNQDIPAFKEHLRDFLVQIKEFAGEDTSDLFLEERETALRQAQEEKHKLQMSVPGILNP

| Molecule | Kd |
| --- | --- |
| B1 | 1000 nM |
| B2 | 2400 nM |
